Results published in paper doi:10.1101/2020.01.15.908418.
Like-named read-outs stand apart in the source and are kept apart here.

Legend:
[1] = target: tropomyosin of murine cardiac thin filaments (mouse (endogenous in murine ventricular myocardium)) (UniProt P58771); test: cryo-EM structure
[2] = target: tropomyosin of murine cardiac thin filaments (mouse (endogenous in murine ventricular myocardium)) (UniProt P58771); test: cryo-EM structure; remark: listed apart in the source

tropomyosin of murine cardiac thin filaments (from UniProt P58771 1-284) (natural protein)
stoichiometry N [1]: 2
stoichiometry N [2]: 2
